Experiments:
Test in all cases: holdup assay
Set-up in all cases: key: below the threshold = too weak to quantify, mostly under pKd 3.1 to 4
Details in all cases: plain residues with an end cap or a label only (N-terminal biotin on a linker: ado-ado)
GRIP2_4, Q9C0E4 = target: GRIP2_4, Q9C0E4
GRASP, Q7Z6J2 = target: GRASP, Q7Z6J2
GRIP1_3, Q9Y3R0 = target: T1, GRIP1_3, Q9Y3R0
T1 sequence (Q9Y3R0 247-346, limits assumed, looked up): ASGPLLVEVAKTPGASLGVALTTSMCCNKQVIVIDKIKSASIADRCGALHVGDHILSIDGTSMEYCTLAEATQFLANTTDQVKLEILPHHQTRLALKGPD

APBA3_1, O96018 = target: T2, APBA3_1, O96018
T2 sequence (O96018 389-490, limits assumed, looked up): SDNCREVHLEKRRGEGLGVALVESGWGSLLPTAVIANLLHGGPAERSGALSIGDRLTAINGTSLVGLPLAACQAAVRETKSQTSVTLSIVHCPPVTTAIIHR

MAGI3_2, Q5TCQ9 = target: MAGI3_2, Q5TCQ9
MAGI2_2, Q86UL8 = target: MAGI2_2, Q86UL8
CARD11, Q9BXL7 = target: T3, CARD11, Q9BXL7
T3 sequence (Q9BXL7 662-765, limits assumed, looked up): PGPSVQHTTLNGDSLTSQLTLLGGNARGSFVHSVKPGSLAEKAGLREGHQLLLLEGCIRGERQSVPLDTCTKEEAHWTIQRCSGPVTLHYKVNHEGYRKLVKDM

RAPGEF6, Q8TEU7 = target: T4, RAPGEF6, Q8TEU7
T4 sequence (Q8TEU7 525-625, limits assumed, looked up): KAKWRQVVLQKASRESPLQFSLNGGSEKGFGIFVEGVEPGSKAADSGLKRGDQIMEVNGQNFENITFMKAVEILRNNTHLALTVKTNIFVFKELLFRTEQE

GRID2IP_1, A4D2P6 = target: GRID2IP_1, A4D2P6
FRMPD2_2, Q68DX3 = target: FRMPD2_2, Q68DX3
LIN7C, Q9NUP9 = target: T5, LIN7C, Q9NUP9
T5 sequence (Q9NUP9 88-185, limits assumed, looked up): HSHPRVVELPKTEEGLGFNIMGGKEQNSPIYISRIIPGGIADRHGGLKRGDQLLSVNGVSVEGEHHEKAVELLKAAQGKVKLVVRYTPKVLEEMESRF

DLG4_1, P78352 = target: DLG4_1, P78352
SNX27, Q96L92 = target: SNX27, Q96L92
GRIP2_7, Q9C0E4 = target: GRIP2_7, Q9C0E4
SHANK1, Q9Y566 = target: T6, SHANK1, Q9Y566
T6 sequence (Q9Y566 658-767, limits assumed, looked up): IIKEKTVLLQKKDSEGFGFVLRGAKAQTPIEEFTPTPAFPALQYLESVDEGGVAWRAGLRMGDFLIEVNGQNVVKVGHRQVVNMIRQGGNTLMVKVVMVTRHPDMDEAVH

PARD3_3, Q8TEW0 = target: PARD3_3, Q8TEW0
NHERF3_3, Q5T2W1 = target: T7, NHERF3_3, Q5T2W1
T7 sequence (Q5T2W1 238-333, limits assumed, looked up): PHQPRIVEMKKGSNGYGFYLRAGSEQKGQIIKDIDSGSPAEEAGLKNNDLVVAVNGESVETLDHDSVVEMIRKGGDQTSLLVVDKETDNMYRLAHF

HTRA4, P83105 = target: T8, HTRA4, P83105
T8 sequence (P83105 378-476, limits assumed, looked up): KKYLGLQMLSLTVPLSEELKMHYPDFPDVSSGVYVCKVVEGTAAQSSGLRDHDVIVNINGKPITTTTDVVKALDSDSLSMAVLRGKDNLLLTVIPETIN

Inadl_6, Q8NI35 = target: Inadl_6, Q8NI35
NHERF2_2, Q15599 = target: NHERF2_2, Q15599
MAGI2_5, Q86UL8 = target: MAGI2_5, Q86UL8
DFNB31_1, Q9P202 = target: T9, DFNB31_1, Q9P202
T9 sequence (Q9P202 135-233, limits assumed, looked up): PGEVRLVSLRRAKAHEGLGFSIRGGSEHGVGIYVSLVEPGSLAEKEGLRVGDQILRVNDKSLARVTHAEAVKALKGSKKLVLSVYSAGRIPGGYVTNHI

HTRA1, Q92743 = target: HTRA1, Q92743
LIMK2, P53671 = target: LIMK2, P53671
LDB3, O75112 = target: LDB3, O75112
Inadl_2, Q8NI35 = target: Inadl_2, Q8NI35
NHERF4_4, Q86UT5 = target: NHERF4_4, Q86UT5
DLG2_2, Q15700 = target: DLG2_2, Q15700
DLG2_2, Q15700, sequence (Q15700 189-283): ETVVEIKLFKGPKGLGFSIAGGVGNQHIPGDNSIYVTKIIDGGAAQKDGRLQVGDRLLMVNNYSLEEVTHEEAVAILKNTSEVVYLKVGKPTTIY

PARD3_3, Q8TEW0, sequence (Q8TEW0 582-685): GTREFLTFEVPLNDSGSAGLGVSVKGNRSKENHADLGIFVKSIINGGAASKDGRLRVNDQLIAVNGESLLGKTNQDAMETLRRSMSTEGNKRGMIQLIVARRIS
LIMK2, P53671, sequence (P53671 143-248): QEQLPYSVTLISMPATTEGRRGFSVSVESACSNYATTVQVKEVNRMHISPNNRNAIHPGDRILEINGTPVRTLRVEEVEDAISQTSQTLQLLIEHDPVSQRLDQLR
MAGI2_2, Q86UL8, sequence (Q86UL8 410-522): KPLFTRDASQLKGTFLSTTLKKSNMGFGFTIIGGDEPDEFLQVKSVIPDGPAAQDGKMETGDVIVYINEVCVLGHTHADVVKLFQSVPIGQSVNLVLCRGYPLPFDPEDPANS
NHERF2_2, Q15599, sequence (Q15599 142-238): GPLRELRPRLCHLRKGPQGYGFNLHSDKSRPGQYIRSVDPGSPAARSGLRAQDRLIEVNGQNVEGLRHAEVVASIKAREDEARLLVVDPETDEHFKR
Inadl_6, Q8NI35, sequence (Q8NI35 1058-1167): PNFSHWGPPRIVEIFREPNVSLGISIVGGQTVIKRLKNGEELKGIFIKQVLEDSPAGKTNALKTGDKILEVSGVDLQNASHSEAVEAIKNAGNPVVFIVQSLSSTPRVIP
FRMPD2_2, Q68DX3, sequence (Q68DX3 944-1038): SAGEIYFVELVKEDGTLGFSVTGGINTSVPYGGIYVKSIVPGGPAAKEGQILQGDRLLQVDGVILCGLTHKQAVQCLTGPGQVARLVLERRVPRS
GRIP2_7, Q9C0E4, sequence (Q9C0E4 934-1023): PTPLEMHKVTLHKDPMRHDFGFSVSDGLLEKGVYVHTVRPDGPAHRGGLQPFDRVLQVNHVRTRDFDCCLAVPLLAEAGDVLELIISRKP
MAGI2_5, Q86UL8, sequence (Q86UL8 915-1017): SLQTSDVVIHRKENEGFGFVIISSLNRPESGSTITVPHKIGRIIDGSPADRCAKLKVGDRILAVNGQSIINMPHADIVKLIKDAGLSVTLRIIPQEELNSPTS
MAGI3_2, Q5TCQ9, sequence (Q5TCQ9 398-503): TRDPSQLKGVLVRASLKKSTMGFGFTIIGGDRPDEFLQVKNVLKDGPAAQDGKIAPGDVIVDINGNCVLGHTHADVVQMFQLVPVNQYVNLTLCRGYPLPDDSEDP
DLG4_1, P78352, sequence (P78352 62-152): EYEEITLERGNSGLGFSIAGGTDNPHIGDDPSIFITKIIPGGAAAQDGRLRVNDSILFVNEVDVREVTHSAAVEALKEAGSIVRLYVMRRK
GRIP2_4, Q9C0E4, sequence (Q9C0E4 446-548): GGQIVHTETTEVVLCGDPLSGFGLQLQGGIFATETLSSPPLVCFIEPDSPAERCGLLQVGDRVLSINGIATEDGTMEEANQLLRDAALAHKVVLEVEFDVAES
GRID2IP_1, A4D2P6, sequence (A4D2P6 1-87): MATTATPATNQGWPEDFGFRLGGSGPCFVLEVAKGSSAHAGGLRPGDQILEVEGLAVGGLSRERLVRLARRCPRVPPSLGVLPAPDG
LDB3, O75112, sequence (O75112 1-94): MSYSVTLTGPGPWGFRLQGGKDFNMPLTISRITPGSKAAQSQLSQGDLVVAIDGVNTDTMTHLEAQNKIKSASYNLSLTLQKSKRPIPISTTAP
HTRA1, Q92743, sequence (Q92743 360-477): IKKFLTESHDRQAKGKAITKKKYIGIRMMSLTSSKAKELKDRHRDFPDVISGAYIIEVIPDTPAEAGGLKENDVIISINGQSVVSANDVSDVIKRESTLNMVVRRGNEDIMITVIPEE
Inadl_2, Q8NI35, sequence (Q8NI35 238-335): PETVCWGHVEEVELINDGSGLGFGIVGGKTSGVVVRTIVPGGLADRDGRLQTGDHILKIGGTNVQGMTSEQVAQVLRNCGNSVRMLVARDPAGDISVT
GRASP, Q7Z6J2, sequence (Q7Z6J2 96-193): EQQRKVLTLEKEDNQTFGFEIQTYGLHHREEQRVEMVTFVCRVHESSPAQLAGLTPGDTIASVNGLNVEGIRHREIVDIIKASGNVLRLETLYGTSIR
NHERF4_4, Q86UT5, sequence (Q86UT5 464-550): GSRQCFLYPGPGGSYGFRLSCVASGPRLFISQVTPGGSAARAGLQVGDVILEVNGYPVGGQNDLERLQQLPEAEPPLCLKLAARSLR

## LESTTVGTSV [KARS1, Q15046]
GRIP2_4, Q9C0E4
  pKd: below the threshold
GRASP, Q7Z6J2
  pKd: 3.95
GRIP1_3, Q9Y3R0
  pKd: below the threshold
APBA3_1, O96018
  pKd: below the threshold
MAGI3_2, Q5TCQ9
  pKd: 4.09
MAGI2_2, Q86UL8
  pKd: below the threshold
CARD11, Q9BXL7
  pKd: below the threshold
RAPGEF6, Q8TEU7
  pKd: below the threshold
GRID2IP_1, A4D2P6
  pKd: below the threshold
FRMPD2_2, Q68DX3
  pKd: 3.79
LIN7C, Q9NUP9
  pKd: below the threshold
DLG4_1, P78352
  pKd: 4.13
SNX27, Q96L92
  pKd: 4.45
GRIP2_7, Q9C0E4
  pKd: below the threshold
SHANK1, Q9Y566
  pKd: 3.71
PARD3_3, Q8TEW0
  pKd: below the threshold
NHERF3_3, Q5T2W1
  pKd: below the threshold
HTRA4, P83105
  pKd: below the threshold
Inadl_6, Q8NI35
  pKd: below the threshold
NHERF2_2, Q15599
  pKd: below the threshold
MAGI2_5, Q86UL8
  pKd: 4.06
DFNB31_1, Q9P202
  pKd: 3.61
HTRA1, Q92743
  pKd: 3.95
LIMK2, P53671
  pKd: below the threshold
LDB3, O75112
  pKd: below the threshold
Inadl_2, Q8NI35
  pKd: below the threshold
NHERF4_4, Q86UT5
  pKd: below the threshold
DLG2_2, Q15700
  pKd: 4.06

## MQHQRTHTRV [ZSCAN30, Q86W11]
GRIP2_4, Q9C0E4
  pKd: below the threshold
GRASP, Q7Z6J2
  pKd: 4.34
GRIP1_3, Q9Y3R0
  pKd: below the threshold
APBA3_1, O96018
  pKd: below the threshold
MAGI3_2, Q5TCQ9
  pKd: 5.37
MAGI2_2, Q86UL8
  pKd: 5.42
CARD11, Q9BXL7
  pKd: below the threshold
RAPGEF6, Q8TEU7
  pKd: below the threshold
GRID2IP_1, A4D2P6
  pKd: 3.57
FRMPD2_2, Q68DX3
  pKd: below the threshold
LIN7C, Q9NUP9
  pKd: below the threshold
DLG4_1, P78352
  pKd: 4.59
SNX27, Q96L92
  pKd: 4.38
GRIP2_7, Q9C0E4
  pKd: below the threshold
SHANK1, Q9Y566
  pKd: 4.08
PARD3_3, Q8TEW0
  pKd: below the threshold
NHERF3_3, Q5T2W1
  pKd: 3.64
HTRA4, P83105
  pKd: below the threshold
Inadl_6, Q8NI35
  pKd: below the threshold
NHERF2_2, Q15599
  pKd: 3.67
MAGI2_5, Q86UL8
  pKd: 3.64
DFNB31_1, Q9P202
  pKd: 3.81
HTRA1, Q92743
  pKd: 3.99
LIMK2, P53671
  pKd: below the threshold
LDB3, O75112
  pKd: below the threshold
Inadl_2, Q8NI35
  pKd: below the threshold
NHERF4_4, Q86UT5
  pKd: below the threshold
DLG2_2, Q15700
  pKd: 4.76

## NIAESLESLV [PTPRZ1, P23471]
GRIP2_4, Q9C0E4
  pKd: below the threshold
GRASP, Q7Z6J2
  pKd: 3.74
GRIP1_3, Q9Y3R0
  pKd: below the threshold
APBA3_1, O96018
  pKd: below the threshold
MAGI3_2, Q5TCQ9
  pKd: 4.92
MAGI2_2, Q86UL8
  pKd: 4.28
CARD11, Q9BXL7
  pKd: below the threshold
RAPGEF6, Q8TEU7
  pKd: below the threshold
GRID2IP_1, A4D2P6
  pKd: below the threshold
FRMPD2_2, Q68DX3
  pKd: 4.66
LIN7C, Q9NUP9
  pKd: 4.08
DLG4_1, P78352
  pKd: 4.65
SNX27, Q96L92
  pKd: 5.09
GRIP2_7, Q9C0E4
  pKd: below the threshold
SHANK1, Q9Y566
  pKd: below the threshold
PARD3_3, Q8TEW0
  pKd: 4.18
NHERF3_3, Q5T2W1
  pKd: below the threshold
HTRA4, P83105
  pKd: below the threshold
Inadl_6, Q8NI35
  pKd: 4
NHERF2_2, Q15599
  pKd: below the threshold
MAGI2_5, Q86UL8
  pKd: 5.47
DFNB31_1, Q9P202
  pKd: 3.8
HTRA1, Q92743
  pKd: 4.41
LIMK2, P53671
  pKd: below the threshold
LDB3, O75112
  pKd: below the threshold
Inadl_2, Q8NI35
  pKd: below the threshold
NHERF4_4, Q86UT5
  pKd: below the threshold
DLG2_2, Q15700
  pKd: 4.72

## ILRKSTTTTV [PRR16, Q569H4]
GRIP2_4, Q9C0E4
  pKd: below the threshold
GRASP, Q7Z6J2
  pKd: 4.41
GRIP1_3, Q9Y3R0
  pKd: below the threshold
APBA3_1, O96018
  pKd: below the threshold
MAGI3_2, Q5TCQ9
  pKd: 5.15
MAGI2_2, Q86UL8
  pKd: 5.2
CARD11, Q9BXL7
  pKd: below the threshold
RAPGEF6, Q8TEU7
  pKd: below the threshold
GRID2IP_1, A4D2P6
  pKd: below the threshold
FRMPD2_2, Q68DX3
  pKd: below the threshold
LIN7C, Q9NUP9
  pKd: below the threshold
DLG4_1, P78352
  pKd: 4.78
SNX27, Q96L92
  pKd: 5.15
GRIP2_7, Q9C0E4
  pKd: below the threshold
SHANK1, Q9Y566
  pKd: below the threshold
PARD3_3, Q8TEW0
  pKd: below the threshold
NHERF3_3, Q5T2W1
  pKd: below the threshold
HTRA4, P83105
  pKd: 4.12
Inadl_6, Q8NI35
  pKd: below the threshold
NHERF2_2, Q15599
  pKd: below the threshold
MAGI2_5, Q86UL8
  pKd: below the threshold
DFNB31_1, Q9P202
  pKd: below the threshold
HTRA1, Q92743
  pKd: 4.06
LIMK2, P53671
  pKd: below the threshold
LDB3, O75112
  pKd: below the threshold
Inadl_2, Q8NI35
  pKd: below the threshold
NHERF4_4, Q86UT5
  pKd: below the threshold
DLG2_2, Q15700
  pKd: 5.17

## VKRNSKETVV [MARCHF3, Q86UD3]
GRIP2_4, Q9C0E4
  pKd: below the threshold
GRASP, Q7Z6J2
  pKd: below the threshold
GRIP1_3, Q9Y3R0
  pKd: below the threshold
APBA3_1, O96018
  pKd: below the threshold
MAGI3_2, Q5TCQ9
  pKd: 5.72
MAGI2_2, Q86UL8
  pKd: 5.26
CARD11, Q9BXL7
  pKd: below the threshold
RAPGEF6, Q8TEU7
  pKd: below the threshold
GRID2IP_1, A4D2P6
  pKd: below the threshold
FRMPD2_2, Q68DX3
  pKd: 3.81
LIN7C, Q9NUP9
  pKd: 3.95
DLG4_1, P78352
  pKd: 5.48
SNX27, Q96L92
  pKd: 5.28
GRIP2_7, Q9C0E4
  pKd: below the threshold
SHANK1, Q9Y566
  pKd: below the threshold
PARD3_3, Q8TEW0
  pKd: below the threshold
NHERF3_3, Q5T2W1
  pKd: below the threshold
HTRA4, P83105
  pKd: below the threshold
Inadl_6, Q8NI35
  pKd: below the threshold
NHERF2_2, Q15599
  pKd: below the threshold
MAGI2_5, Q86UL8
  pKd: 3.98
DFNB31_1, Q9P202
  pKd: 3.64
HTRA1, Q92743
  pKd: 4.35
LIMK2, P53671
  pKd: below the threshold
LDB3, O75112
  pKd: below the threshold
Inadl_2, Q8NI35
  pKd: below the threshold
NHERF4_4, Q86UT5
  pKd: below the threshold
DLG2_2, Q15700
  pKd: 6.12

— article PMC9482650, “Quantitative fragmentomics allow affinity mapping of interactomes” (Nature Communications, 2022)
